Experimental data from patent US20200165325A1.

What was measured:
[1] = target: HIV-1 Env of strain CNE17 (HIV-1)
[2] = target: HIV-1 Env of strain 3016.v5.c45 (HIV-1)
[3] = target: HIV-1 Env of strain ZM135M.PL10a (HIV-1)
[4] = target: HIV-1 Env of strain RHPA4259.7 (HIV-1)
[5] = target: HIV-1 Env of strain 3718.v3.c11 (HIV-1)
[6] = target: HIV-1 Env of strain WEAU_d15_410_787 (HIV-1)
[7] = target: HIV-1 Env of strain CNE30 (HIV-1)
[8] = target: HIV-1 Env of strain 62357_14_D3_4589 (HIV-1)
[9] = target: HIV-1 Env of strain C3347.c11 (HIV-1)
[10] = target: HIV-1 Env of strain 3415.v1.c1 (HIV-1)
[11] = target: HIV-1 Env of strain Q769.d22 (HIV-1)
[12] = target: HIV-1 Env of strain TRO.11 (HIV-1)
[13] = target: HIV-1 Env of strain Ce0682_E4 (HIV-1)
[14] = target: HIV-1 Env of strain T278-50 (HIV-1)
[15] = target: HIV-1 Env of strain 1056_10_TA11_1826 (HIV-1)
[16] = target: HIV-1 Env of strain C1080.c03 (HIV-1)
[17] = target: HIV-1 Env of strain CNE58 (HIV-1)
[18] = target: HIV-1 Env of strain 1054_07_TC4_1499 (HIV-1)
[19] = target: HIV-1 Env of strain Ce2010_F5 (HIV-1)
[20] = target: HIV-1 Env of strain ZM214M.PL15 (HIV-1)
[21] = target: HIV-1 Env of strain 6535.3 (HIV-1)
[22] = target: HIV-1 Env of strain T257-31 (HIV-1)
[23] = target: HIV-1 Env of strain 703357.C02 (HIV-1)
[24] = target: HIV-1 Env of strain ZM247v1(Rev-) (HIV-1)
[25] = target: HIV-1 Env of strain R1166.c01 (HIV-1)
[26] = target: HIV-1 Env of strain 211-9 (HIV-1)
[27] = target: HIV-1 Env of strain P1981_C5_3 (HIV-1)
[28] = target: HIV-1 Env of strain ZM109F.PB4 (HIV-1)
[29] = target: HIV-1 Env of strain THRO4156.18 (HIV-1)
[30] = target: HIV-1 Env of strain ZM249M.PL1 (HIV-1)
[31] = target: HIV-1 Env of strain 1006_11_C3_1601 (HIV-1)
[32] = target: HIV-1 Env of strain Ce0393_C3 (HIV-1)
[33] = target: HIV-1 Env of strain T250-4 (HIV-1)
[34] = target: HIV-1 Env of strain WITO4160.33 (HIV-1)
[35] = target: HIV-1 Env of strain 620345.c01 (HIV-1)
[36] = target: HIV-1 Env of strain Du172.17 (HIV-1)
[37] = target: HIV-1 Env of strain Q259.d2.17 (HIV-1)
[38] = target: HIV-1 Env of strain 928-28 (HIV-1)
[39] = target: HIV-1 Env of strain 89-F1_2_25 (HIV-1)
[40] = target: HIV-1 Env of strain ZM53M.PB12 (HIV-1)
[41] = target: HIV-1 Env of strain HIV-16845-2.22 (HIV-1)
[42] = target: HIV-1 Env of strain QH0692.42 (HIV-1)
[43] = target: HIV-1 Env of strain R2184.c04 (HIV-1)
[44] = target: HIV-1 Env of strain TRJO4551.58 (HIV-1)
[45] = target: HIV-1 Env of strain P0402_c2_11 (HIV-1)
[46] = target: HIV-1 Env of strain 3301.v1.c24 (HIV-1)
[47] = target: HIV-1 Env of strain Ce2060_G9 (HIV-1)
[48] = target: HIV-1 Env of strain REJO4541.67 (HIV-1)
[49] = target: HIV-1 Env of strain CNE20 (HIV-1)
[50] = target: HIV-1 Env of strain C2101.c01 (HIV-1)
[51] = target: HIV-1 Env of strain Du422.1 (HIV-1)
[52] = target: HIV-1 Env of strain ZM233M.PB6 (HIV-1)
[53] = target: HIV-1 Env of strain ZM197M.PB7 (HIV-1)
[54] = target: HIV-1 Env of strain CNE53 (HIV-1)
[55] = target: HIV-1 Env of strain T255-34 (HIV-1)
[56] = target: HIV-1 Env of strain Q23.17 (HIV-1)
[57] = target: HIV-1 Env of strain 231965.c01 (HIV-1)

Substance: NIH45-46 G54W IgG (antibody)
- In vitro neutralization IC80 [1]: 0.127 µg/mL
- In vitro neutralization IC80 [2]: 15.4 µg/mL
- In vitro neutralization IC80 [3]: 0.16 µg/mL
- In vitro neutralization IC80 [4]: 0.007 µg/mL
- In vitro neutralization IC80 [5]: 0.04 µg/mL
- In vitro neutralization IC80 [6]: 0.003 µg/mL
- In vitro neutralization IC80 [7]: 0.196 µg/mL
- In vitro neutralization IC80 [8]: 0.07 µg/mL
- In vitro neutralization IC80 [9]: 0.028 µg/mL
- In vitro neutralization IC80 [10]: 0.023 µg/mL
- In vitro neutralization IC80 [11]: 0.009 µg/mL
- In vitro neutralization IC80 [12]: 0.13 µg/mL
- In vitro neutralization IC80 [13]: 0.039 µg/mL
- In vitro neutralization IC80 [14]: > 50 µg/mL
- In vitro neutralization IC80 [15]: 0.16 µg/mL
- In vitro neutralization IC80 [16]: 0.91 µg/mL
- In vitro neutralization IC80 [17]: 0.05 µg/mL
- In vitro neutralization IC80 [18]: 0.165 µg/mL
- In vitro neutralization IC80 [19]: 0.187 µg/mL
- In vitro neutralization IC80 [20]: 0.15 µg/mL
- In vitro neutralization IC80 [21]: 0.13 µg/mL
- In vitro neutralization IC80 [22]: 0.45 µg/mL
- In vitro neutralization IC80 [23]: 17.6 µg/mL
- In vitro neutralization IC80 [24]: 2.6 µg/mL
- In vitro neutralization IC80 [25]: 0.51 µg/mL
- In vitro neutralization IC80 [26]: > 50 µg/mL
- In vitro neutralization IC80 [27]: 0.07 µg/mL
- In vitro neutralization IC80 [28]: 0.07 µg/mL
- In vitro neutralization IC80 [29]: 1.81 µg/mL
- In vitro neutralization IC80 [30]: 0.007 µg/mL
- In vitro neutralization IC80 [31]: 0.008 µg/mL
- In vitro neutralization IC80 [32]: 0.089 µg/mL
- In vitro neutralization IC80 [33]: 44.9 µg/mL
- In vitro neutralization IC80 [34]: 0.04 µg/mL
- In vitro neutralization IC80 [35]: > 50 µg/mL
- In vitro neutralization IC80 [36]: 42.9 µg/mL
- In vitro neutralization IC80 [37]: 0.014 µg/mL
- In vitro neutralization IC80 [38]: 0.25 µg/mL
- In vitro neutralization IC80 [39]: > 50 µg/mL
- In vitro neutralization IC80 [40]: 0.16 µg/mL
- In vitro neutralization IC80 [41]: 2.1 µg/mL
- In vitro neutralization IC80 [42]: 1.12 µg/mL
- In vitro neutralization IC80 [43]: 0.036 µg/mL
- In vitro neutralization IC80 [44]: 0.05 µg/mL
- In vitro neutralization IC80 [45]: 0.023 µg/mL
- In vitro neutralization IC80 [46]: 0.004 µg/mL
- In vitro neutralization IC80 [47]: 0.042 µg/mL
- In vitro neutralization IC80 [48]: 0.013 µg/mL
- In vitro neutralization IC80 [49]: 0.48 µg/mL
- In vitro neutralization IC80 [50]: 0.17 µg/mL
- In vitro neutralization IC80 [51]: > 50 µg/mL
- In vitro neutralization IC80 [52]: 0.11 µg/mL
- In vitro neutralization IC80 [53]: 0.18 µg/mL
- In vitro neutralization IC80 [54]: 0.005 µg/mL
- In vitro neutralization IC80 [55]: 0.099 µg/mL
- In vitro neutralization IC80 [56]: 0.03 µg/mL
- In vitro neutralization IC80 [57]: 0.035 µg/mL
